Laboratory results taken from patent US20090011988A1 (Genentech, published 2009).
Positions of bridges follow the written chain, without caps; N, C: chain ends. No end group written: not given here. suc = not defined here

Key:
[1] = target: T1, recombinant human IGFBP-3 (human, UniProt P17936 28-291); assay: phage ELISA (IGF-blocking phage assay): titration of g8 peptide-phage on an IGFBP-3-coated plate in the presence of 100 nM IGF-1; OD492
Procedure: (§1) The plates were then washed ten times, as above, and a solution of rabbit anti-phage antibody mixed with a goat-anti-rabbit conjugate of horseradish peroxidase was added. After an incubation of 1 hour at room temperature, the plates were developed with a chromogenic substrate, o-phenylenediamine (Sigma). The reaction was stopped with addition of ½ volume of 2.5 M H₂SO₄. Optical density at 490 nm was measured on a spectrophotometric plate reader.

[2] = target: T1, recombinant human IGFBP-3; assay: phage ELISA (IGF-blocking phage assay): g8 peptide-phage at a 50-fold dilution on an IGFBP-3-coated plate, without and with IGF-1; OD492
Procedure: as §1
In each case, the phagemid clone was grown from a single colony overnight at 37° C. in a culture volume of 5 ml. The phage particles were precipitated and resuspended in 0.5 ml of PBS buffer.

[3] = target: T2, human IGFBP-1 (human, UniProt P08833 26-259); assay: BIAcore inhibition assay
T2 sequence (looked up): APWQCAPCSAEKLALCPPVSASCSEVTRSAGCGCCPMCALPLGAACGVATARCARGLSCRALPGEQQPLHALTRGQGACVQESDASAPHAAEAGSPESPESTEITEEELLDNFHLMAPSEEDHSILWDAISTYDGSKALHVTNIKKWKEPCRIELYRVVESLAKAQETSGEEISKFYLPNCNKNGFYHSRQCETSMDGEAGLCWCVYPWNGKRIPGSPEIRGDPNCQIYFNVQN
Procedure: Peptides were assayed in a BIAcore™ assay as described in WO 98/45427, supra.

[4] = target: T1, recombinant human IGFBP-3; assay: phage ELISA on IGFBP-3 plate, competitor IGF-1
[5] = target: T1, recombinant human IGFBP-3; assay: phage ELISA: titration of g8 peptide-phage on an IGFBP-3-coated plate without IGF-1; OD492
Procedure: as §1

[6] = target: T2, human IGFBP-1; assay: BIAcore kinetics, IGFBP-1 coupled to chip
Procedure: For each dilution of peptides, a global fit of the sensorgram data was performed using a 1:1 Langmuir binding model.

[7] = target: T1, recombinant human IGFBP-3; assay: BIAcore competition, IGFBP-3 to immobilized IGF-2
Procedure: IGF-2 was immobilized on a dextran chip for inhibition assays using a BIACORE™ 2000 surface-plasmon-resonance device (BIAcore, Inc., Piscataway, N.J.) to measure free binding protein. IGF-2 was biotinylated as described above, and injected over a chip to which streptavidin had been coupled (BIAcore, Inc.) to give approximately 1500 RU of immobilized IGF-2. […] After incubation for >1 hour at room temperature, an aliquot of […] was injected at a flow rate of […] over the IGF-2 chip.

[8] = target: T1, recombinant human IGFBP-3; assay: BIAcore competition, IGFBP-3 to immobilized IGF-1
Procedure: IGF-1 was immobilized on a dextran chip for inhibition assays using a BIACORE™ 2000 surface-plasmon-resonance device (BIAcore, Inc., Piscataway, N.J.) to measure free binding protein. IGF-1 was biotinylated as described above, and injected over a chip to which streptavidin had been coupled (BIAcore, Inc.) to give 400 to 800 RU (response units) of immobilized IGF-1. […] After incubation for >1 hour at room temperature, an aliquot of 20:L was injected at a flow rate of 20:L/min over the IGF-1 chip. […]

[9] = target: T1, recombinant human IGFBP-3; assay: BIAcore competition, IGFBP-3 to IGF-1
Procedure: IGF-1 was immobilized on a dextran chip for inhibition assays using a BIACORE™ 2000 surface-plasmon-resonance device (BIAcore, Inc., Piscataway, N.J.) to measure free binding protein. IGF-1 was biotinylated as described above, and injected over a chip to which streptavidin had been coupled (BIAcore, Inc.) to give 400 to 800 RU (response units) of immobilized IGF-1. […] After incubation for >1 hour at room temperature, an aliquot of 20:L was injected at a flow rate of 20:L/min over the IGF-1 chip.

[10] = target: T1, recombinant human IGFBP-3; assay: BIAcore competition, IGFBP-3 to IGF-1; remark: listed apart in the source
[11] = target: T2, human IGFBP-1; assay: BIAcore, IGFBP-1 coupled to chip

T1 sequence (P17936 28-291 limits assumed): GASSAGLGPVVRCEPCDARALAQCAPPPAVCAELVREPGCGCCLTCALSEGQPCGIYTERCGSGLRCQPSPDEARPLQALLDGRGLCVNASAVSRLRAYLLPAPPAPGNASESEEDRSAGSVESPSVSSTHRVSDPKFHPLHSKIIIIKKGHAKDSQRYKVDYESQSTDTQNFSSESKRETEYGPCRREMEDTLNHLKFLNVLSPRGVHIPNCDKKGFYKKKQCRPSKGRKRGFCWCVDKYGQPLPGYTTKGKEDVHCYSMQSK

B1: peptide-phage clone 4D3.3 (g8 display) (peptide, not shown: large carriers)
chain: SEEVCWPVAEWYLCNMWGR
modifications: not fully specified (bridges); cysteine pairing not given here; also: polyvalent display on M13 phage, fused via linker to g8p
notes: polyvalent display on M13 phage
B1: binds [1].

B2: 4D3.9 (peptide)
peptide displayed on M13 phage as a fusion to g8p: ETVANCDCYMDLCLCYGSDR
modifications: not fully specified (bridges); cysteine pairing not given here; also: displayed on phage as g8p fusion
notes: whole phage particle in the assay; also called peptide-phage clone 4D3.9 (g8 display)
B2: binds [2].

B3: (i+8)C (peptide)
peptide: Ac-RAGPLEWLAEKYFE
modifications: linker 6-14 via 1,5‑diaminopentane
In the case of B3, the “fold potency reduction, IC50 (BP1-01)/IC50 (mut)” value (shortened to “fold potency reduction, IC50”) [3] is reported as 5.9.

B4: peptide-phage clone 4B3.4 (g8 display) (peptide, not shown: large carriers)
chain: DMGVCADGPWMYVCEWTE
notes: as for B1
B4: binds [1].

B5: 4D3.8 (peptide)
peptide displayed on M13 phage as a fusion to g8p: SEEVCWPVAEWYLCNILGP
modifications: not fully specified (bridges); cysteine pairing not given here; also: displayed on phage as g8p fusion
notes: whole phage particle in the assay; also called peptide-phage clone 4D3.8 (g8 display)
B5: binds [2].

B6: (i+7)D (peptide)
peptide: Ac-RAGPLEWLAEKYEG
modifications: linker 6-13 via 1,5‑diaminopentane
With B6 the “fold potency reduction, IC50” value [3] was 7.7.

B7: peptide-phage clone 23A3.3 (g8 display) (peptide, not shown: large carriers)
chain: SGGAIYWPVEQFIAFMAVGK
notes: as for B1
For B7, the “% inhibition of phage binding by 100 nM IGF-1” value (from here on “% inhibition of phage binding”) [4] was about 20%.

B8: peptide-phage clone 23A3.5 (g8 display) (peptide, not shown: large carriers)
chain: SGGAIYMPVEQFIAFMAVGK
notes: as for B1
In the case of B8, the “% inhibition of phage binding” value [4] is reported as about 20%.

B9: peptide-phage clone 4D3.4 (g8 display) (peptide, not shown: large carriers)
chain: RVGAYISCSETECWVEDLLD
modifications: not fully specified (bridges); cysteine pairing not given here; also: polyvalent display on M13 phage, fused via linker to g8p
notes: as for B1
B9: binds [5].

B10: BP1-20 (peptide)
peptide: EARVCRAGPLQWLCEKYF-NH2
modifications: disulfide 5-14; N-terminus assumed
SMILES: CC(C)C[C@@H]1NC(=O)[C@H](Cc2c[nH]c3ccccc23)NC(=O)[C@H](CCC(N)=O)NC(=O)[C@H](CC(C)C)NC(=O)[C@@H]2CCCN2C(=O)CNC(=O)[C@H](C)NC(=O)[C@H](CCCNC(=N)N)NC(=O)[C@@H](NC(=O)[C@@H](NC(=O)[C@H](CCCNC(=N)N)NC(=O)[C@H](C)NC(=O)[C@@H](N)CCC(=O)O)C(C)C)CSSC[C@@H](C(=O)N[C@@H](CCC(=O)O)C(=O)N[C@@H](CCCCN)C(=O)N[C@@H](Cc2ccc(O)cc2)C(=O)N[C@@H](Cc2ccccc2)C(N)=O)NC1=O
B10 gave a Kd [6] of 33 nM.

B11: (i+8)B (peptide)
peptide: Ac-RPLEWLAEKYFE
modifications: linker 4-12 via 1,5‑diaminopentane
B11 was tested, and the “fold potency reduction, IC50” value [3] was 7.7.

B12: BP1-21A (peptide)
peptide: SEVGCRAGPLQWLCEKYFSTY-NH2
modifications: disulfide 5-14; N-terminus assumed
SMILES: CC(C)C[C@@H]1NC(=O)[C@H](Cc2c[nH]c3ccccc23)NC(=O)[C@H](CCC(N)=O)NC(=O)[C@H](CC(C)C)NC(=O)[C@@H]2CCCN2C(=O)CNC(=O)[C@H](C)NC(=O)[C@H](CCCNC(=N)N)NC(=O)[C@@H](NC(=O)CNC(=O)[C@@H](NC(=O)[C@H](CCC(=O)O)NC(=O)[C@@H](N)CO)C(C)C)CSSC[C@@H](C(=O)N[C@@H](CCC(=O)O)C(=O)N[C@@H](CCCCN)C(=O)N[C@@H](Cc2ccc(O)cc2)C(=O)N[C@@H](Cc2ccccc2)C(=O)N[C@@H](CO)C(=O)N[C@H](C(=O)N[C@@H](Cc2ccc(O)cc2)C(N)=O)[C@@H](C)O)NC1=O
notes: also called Y135C
Binder B12 has a Kd [6] of 41 nM.

B13: BP3-01-ox (peptide)
peptide: SEEVCWPVAEWYLCNMWG
modifications: disulfide 5-14
Work on B13 yielded an IC50 [7] of 920 nM, an IC50 [8] of 2000 nM and an IC50 [9] of 2000 nM.

B14: peptide-phage clone 4C3.2 (g8 display) (peptide, not shown: large carriers)
chain: ELDGWVCIKVGEQNLCYLAE
modifications: not fully specified (bridges); cysteine pairing not given here; also: polyvalent display on M13 phage, fused via linker to g8p
notes: as for B1
B14: binds [2].

B15: BP3-108 (peptide)
peptide: suc-IPVSPDWFVCQ-NH2
modifications: reading uncertain
notes: also called phage parent t4H3.9
Binder B15 has an IC50 [10] of 20000 nM.

B16: peptide-phage clone 4D3.11 (g8 display) (peptide, not shown: large carriers)
chain: VAWEVCWDRHDQGYICTTDS
notes: as for B1
With B16 the “% inhibition of phage binding” value [4] was 5%.

B17: BP3-15 (peptide)
peptide: SEEVCWPVAEWYLCN
modifications: disulfide 5-14
B17 gave an IC50 [7] of 780 nM, an IC50 [8] of 750 nM and an IC50 [9] of 720 nM.

B18: BP3-107 (peptide)
peptide: suc-CQLVRPDLLLCQ-NH2
modifications: disulfide 1-11; reading uncertain
notes: also called phage parent t4H3.6
B18 gave an IC50 [10] of 100000 nM.

B19: 4D3.12 (peptide)
peptide displayed on M13 phage as a fusion to g8p: AEWAECWIAGDQLLCVGKDN
modifications: not fully specified (bridges); cysteine pairing not given here; also: displayed on phage as g8p fusion
notes: whole phage particle in the assay; also called peptide-phage clone 4D3.12 (g8 display)
B19: binds [2].

B20: BP1-02 (peptide)
peptide: SEVGCRAGPLQWLCEKYFG
modifications: disulfide 5-14
With B20 the “half-life for peptide dissociation” value [11] was about 28 s, the koff [11] was 0.0503 s⁻¹ and the kon [11] was 230000 M⁻¹ s⁻¹. It also gave a Kd [6] of 210 nM.

B21: peptide-phage clone 4A3.1 (g8 display) (peptide, not shown: large carriers)
chain: SGTACYGGPEWWCCSLAGSP
modifications: not fully specified (bridges); also: displayed on M13 g8p phage, disulfide pairing of the three Cys not given here
notes: as for B1
B21: binds [1].

B22: BP1-40 (peptide)
peptide: GQQSCRAGPLQWLCEKYFSTY
modifications: disulfide 5-14
notes: also called Y0791A
Binder B22 has a Kd [6] of 27 nM.

B23: peptide-phage clone 4D3.5 (g8 display) (peptide, not shown: large carriers)
chain: WFKTVCYEWEDEVQCYTLEE
modifications: not fully specified (bridges); cysteine pairing not given here; also: polyvalent display on M13 phage, fused via linker to g8p
notes: as for B1
B23: binds [5].

B24: BP3-17 (peptide)
peptide: VCWPVAEWYLCN
modifications: disulfide 2-11
For B24, the IC50 [7] was 5100 nM and the IC50 [8] was 9000 nM.
